# According to the nanobody polyreactivity screen of Harvey et al. (2022):
# Test: yeast display, Sf9 membrane polyspecificity reagent, FACS + sequencing; frameworks hold sequencing errors
# Outline: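 Polyreactivity labels are assigned by the sorting gate from which each nanobody was recovered. The gates were low and high (top ~1%), set on anti-HA fluorescence for expression and streptavidin fluorescence for reagent binding. Before sorting, galactose-induced (36–48 hours) yeast display cells were stained for 1 hour at 4 °C with 10% biotinylated, detergent-solubilized Sf9 membrane reagent.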
row,Sequence,polyreactivity (PSR sort gate)
1,QFQLVESRGGLVQAGGSLRLNCASSGSIFYSYAIGWYRQAPGKERELVAAITRGGSTYYADSVKGRFTISRDNAKNTVYLQMNSLKREDTAVYYCAAEFYSYKYPDYDYWGQGTQVTVSS,low polyreactivity
2,QVQLVESGGGLVQAGGSLRLSCAASGRIFWDNAMGWYRQAAGKEWELVAAISDSVVITYYADSVKGRFTISRDNAKNTVYLQMNSLKPEDTAVYYCAADKRGTVYLSSLWMDYWGQGTQVTVSS,low polyreactivity
3,QVQLVESGGGLVQAGGSLRLSCAASGGTYRVKAMGWYRQAPGKEREFVAAISGSGSSTYYADSVKGRFTISRDNAKNTVYLQMNSLKPEDTAVYYCAARSCVGGDNDYWGQGTQVTVSS,low polyreactivity
4,QVQLVESGGGLVQAGGSLRLSCAASGYIFTYYTMGWYRQAPGKERELVAAITSSGSRTRYADSVKGRFTISRDNAKNTVYLQMNSLKPEDTAVYYCAAVYRLKSGVEWRDSQFGYWGQGTQVTVSS,high polyreactivity
5,QVQLVESGGRLVQAGGSLRLSCAASGFIFDDYDIGWYTQAPGKERELVDAISWSGGSTYYEDSLKGRFTISRDNAKNTVYLQMNSLKPEDTAVYYCNADYYRSRYDYWGQGTQVTVSS,high polyreactivity
6,QVQLVESGGGLVQAGGSLRLSCAASGSIFYGYAMGWYRQAPGKERELVAGISNGGSTNYADSVKGRFTISRDNAKNTVYLQLNSLKPEDTAVYYCNATYYSAYSYLYGYWGQGTQVTVSS,low polyreactivity
7,QFQLVESGGGLVQAGGSLRLSCAASGIIFGRYTMGWYRDAPGKERELVAAITSSGITYYADSVKGRFTISRDNAKNTVYLQMNSLKPEDTAVYYCAADVGYWGRSRGYPSDDYDYWGQGTQVTVSS,low polyreactivity
8,QVQLVESGGGLVQAGGSLRLSCAASGITFFRYAMGWYRQAPGKEREFVAAISGRGGSTYYADSVKGRFTISRDNAKNTVYLQMNSLKPEDTAVYYCATRRSYLADYWGQGTQVTVSS,high polyreactivity
9,QVQLVESGGGLVQAGGSLRFSCAASGSTFKAYAMGWYRQAPGKERDLVARITYSGDITYYADSVKGRFTISRDNAKNTVYVQMNSLKRDDTAVFYCNDGFFVLEYDYWGQGTQLTVSS,low polyreactivity
10,QVQLVESGGGLVQAGGSLRLSCAASGIIFRPYAMGWYRQAPGKERELVAAITGSGVSTYYADSVKGRFTISRDNAKNTVYLQMNCQKPEDTAVYYCAKRYNRGYHRYDYWGQGTQVTVSS,low polyreactivity
11,QVQLVESGGGLVQAGGSLRLSCAASGFTLAWNAMGWYRQAPGKERELVATISRSGSSTSYADSVKGRFTISRDTAKNTVYLQMNSLKPEDTAVYYCAADRYTVRMDYWGQGTQVTVSS,high polyreactivity
12,QVQLVESGGGLVQAGGSLRLSCAASGFTFYWTAMGWYRQAPGKERELVAAINGGDSTNYADSVKGRFTISRDNAKNTVYLQMNSLKPEDTAVYYCAKYYYTSIVGYDSWGQGTQVTVSS,low polyreactivity
13,QVQLVESGGGLVQAGGTLRLSCAASGSTIKPYAMGWNRQAPGKERELVAVIRWRGGRTYYADSVKGRFTISRDNAKNTAYFQINSQNPADTAVYYCAAGGSQAAGGYGYYGYDYWGQGTQVTVSA,low polyreactivity
14,QVQRVESGGGLVQAGGSLRLSCAASGSIFWRNAMGWSRQAPGKERELVAAITSGGSTDYADSVKGGFRISRDTAKNTVYLQIHSLKPEDPAVYYCAAVTWSGWDGYYYWGQGTQVTVSS,low polyreactivity
15,QVQLVESAGGLVQAGGSLRLSCADSGSISTVYAMGWYRPAPGKERELVAAISWSGGYTYYADTVKGRFTISRDNEKNTVYLQMNSVKPEDTAFYYCDAEGYLVGSRWGPCYGDYWGQGTQVTGSS,high polyreactivity
16,QVQLVESGGGLVQAGGSLRLSCADSGSIFRYYFMGCYRQAPGKERELVSAISSGGRTYYADSVKGRFTISRDNAKNTVYLQMNSLNPEDTAVYYCNDQGLFYCEMDYWGQGTQVTVSS,high polyreactivity
17,QVQLVESGGGIVQAGGSLRLSCAASGRIFAYNAMGWYRQAPGKDRELVAAISSGGNTYYADSVKGRFTISRDNAKNTVYLQMYRLKPEDTAVYYCNAGVGWHRYYSNYDYWGQGTQVTVSS,low polyreactivity
